B1: CACACA_negctrl_site801 (dsDNA)
DNA 1: GATTTATATATATAAAATAATTGAATATTTTCTTTT
DNA 2: AAAAGAAAATATTCAATTATTTTATATATATAAATC
B2: CACACA_negctrl_site154 (dsDNA)
DNA 1: TTTTAAAAAATATAATATAATATAATATAAAATAAA
DNA 2: TTTATTTTATATTATATTATATTATATTTTTTAAAA
B3: CACACA_negctrl_site473 (dsDNA)
DNA 1: TATTTAATTATATAAAATTAAATTTTTAATTCTTCC
DNA 2: GGAAGAATTAAAAATTTAATTTTATATAATTAAATA
B4: CACACA_negctrl_site1335 (dsDNA)
DNA 1: TAAAATTTTAACAAAAAAAAAAAAAAAAAAAGAAAA
DNA 2: TTTTCTTTTTTTTTTTTTTTTTTTGTTAAAATTTTA
B5: CACACA_negctrl_site1813 (dsDNA)
DNA 1: TTTTTATTCGATGATCAAATAGGTATATACAAAAAA
DNA 2: TTTTTTGTATATACCTATTTGATCATCGAATAAAAA
B6: CACACA_negctrl_site575 (dsDNA)
DNA 1: TATTTACAAAAAAAATATAAAAAATATAAAATATAT
DNA 2: ATATATTTTATATTTTTTATATTTTTTTTGTAAATA
B7: CACACA_negctrl_site283 (dsDNA)
DNA 1: ACATTCTGATGGTGATTATTAATTATTACAAAAATT
DNA 2: AATTTTTGTAATAATTAATAATCACCATCAGAATGT
B8: CACACA_negctrl_site648 (dsDNA)
DNA 1: AAAAAGAAAAAATATATTCGTCTATTATAAACAATA
DNA 2: TATTGTTTATAATAGACGAATATATTTTTTCTTTTT
B9: CACACA_negctrl_site87 (dsDNA)
DNA 1: TCTTTCTAAATCTTACAAATTACTAAAATATTTATA
DNA 2: TATAAATATTTTAGTAATTTGTAAGATTTAGAAAGA
B10: CACACA_negctrl_site1724 (dsDNA)
DNA 1: TTTTTCTTTTTTTTTTTAATAATATATAACAAATTT
DNA 2: AAATTTGTTATATATTATTAAAAAAAAAAAGAAAAA
B11: CACACA_negctrl_site454 (dsDNA)
DNA 1: TATTGTAATATTATATATATCTATTATGTATATAAA
DNA 2: TTTATATACATAATAGATATATATAATATTACAATA
B12: CACACA_negctrl_site945 (dsDNA)
DNA 1: ATATAAATAAATTAGTGAAAAAAAAAAAATTTTTTT
DNA 2: AAAAAAATTTTTTTTTTTTCACTAATTTATTTATAT
B13: CACACA_negctrl_site1402 (dsDNA)
DNA 1: TTATTATTCTTAAGGATATAACAAAAAAGAAAAATT
DNA 2: AATTTTTCTTTTTTGTTATATCCTTAAGAATAATAA
B14: CACACA_negctrl_site1736 (dsDNA)
DNA 1: ATTGAAAATTATTTACCTTCTTTGAAAGAACAAATG
DNA 2: CATTTGTTCTTTCAAAGAAGGTAAATAATTTTCAAT
B15: CACACA_negctrl_site1791 (dsDNA)
DNA 1: TTTTAAAAAAAAAAAATAAATAAATAAGATATTATC
DNA 2: GATAATATCTTATTTATTTATTTTTTTTTTTTAAAA
B16: CACACA_negctrl_site427 (dsDNA)
DNA 1: TTTATAAATTCTCTTTTTAAAAAATATTTTTATACT
DNA 2: AGTATAAAAATATTTTTTAAAAAGAGAATTTATAAA
B17: CACACA_negctrl_site90 (dsDNA)
DNA 1: TTATAATATATATAAAAGAAAAAAAATTATAATATA
DNA 2: TATATTATAATTTTTTTTCTTTTATATATATTATAA
B18: CACACA_negctrl_site1598 (dsDNA)
DNA 1: TATTTTAACATGTTTTCAAAAATAAAACATATAAAT
DNA 2: ATTTATATGTTTTATTTTTGAAAACATGTTAAAATA
B19: CACACA_negctrl_site766 (dsDNA)
DNA 1: TTCTTTCTGTTTTATTTATAATAATTTATGATAAAA
DNA 2: TTTTATCATAAATTATTATAAATAAAACAGAAAGAA
B20: CACACA_negctrl_site213 (dsDNA)
DNA 1: ATAAATATATGGTTTCATTATATTAAATTCAATTTA
DNA 2: TAAATTGAATTTAATATAATGAAACCATATATTTAT
B21: CACACA_negctrl_site1262 (dsDNA)
DNA 1: ATATAAAGAAATTAATTTTTCAACAATAAAAATATA
DNA 2: TATATTTTTATTGTTGAAAAATTAATTTCTTTATAT
B22: CACACA_negctrl_site82 (dsDNA)
DNA 1: TTTTGTTTCTATATAAGATGGAAATATAAACTTGTA
DNA 2: TACAAGTTTATATTTCCATCTTATATAGAAACAAAA
B23: CACACA_negctrl_site941 (dsDNA)
DNA 1: ATATTACGCACAAAAAAAAAAAAAAAAAAAAAAAAA
DNA 2: TTTTTTTTTTTTTTTTTTTTTTTTTGTGCGTAATAT
B24: CACACA_negctrl_site153 (dsDNA)
DNA 1: CTTGGTAGTTTTTTCTTATAATCTAATTATTAATAA
DNA 2: TTATTAATAATTAGATTATAAGAAAAAACTACCAAG
B25: CACACA_negctrl_site466 (dsDNA)
DNA 1: ATAAAAGAATTAAATAATCAAAATGATTATTTTATA
DNA 2: TATAAAATAATCATTTTGATTATTTAATTCTTTTAT
B26: CACACA_negctrl_site1347 (dsDNA)
DNA 1: ATTTTTTTTTTTTTTTTTTTTTTTTTTTAATCTGGA
DNA 2: TCCAGATTAAAAAAAAAAAAAAAAAAAAAAAAAAAT
B27: CACACA_negctrl_site1228 (dsDNA)
DNA 1: ATATTTTGGGGACTTTTTAAAAAAGAAGTATTAAAA
DNA 2: TTTTAATACTTCTTTTTTAAAAAGTCCCCAAAATAT
B28: CACACA_negctrl_site362 (dsDNA)
DNA 1: TTATTTTTTCTTTTTTTTCTTACCACAAAAATGGAT
DNA 2: ATCCATTTTTGTGGTAAGAAAAAAAAGAAAAAATAA
B29: CACACA_negctrl_site332 (dsDNA)
DNA 1: TCTTTTAAAAATATAAAAAGGAATATATAAAAATGT
DNA 2: ACATTTTTATATATTCCTTTTTATATTTTTAAAAGA
B30: CACACA_negctrl_site651 (dsDNA)
DNA 1: TTTGGAAAGCGTGATTTTTGACAAACACAAAAAAAA
DNA 2: TTTTTTTTGTGTTTGTCAAAAATCACGCTTTCCAAA
B31: CACACA_negctrl_site65 (dsDNA)
DNA 1: ATTAAAAATTATATTTTATAAAAATTAAAAGAAATA
DNA 2: TATTTCTTTTAATTTTTATAAAATATAATTTTTAAT
B32: CACACA_negctrl_site731 (dsDNA)
DNA 1: TCTAAACAAATTAATAAAATAAGTATTCAAAATTAT
DNA 2: ATAATTTTGAATACTTATTTTATTAATTTGTTTAGA
B33: CACACA_negctrl_site81 (dsDNA)
DNA 1: TTCTGTATAATATAAAAACAAAAATTAAATTAAAAC
DNA 2: GTTTTAATTTAATTTTTGTTTTTATATTATACAGAA
B34: CACACA_negctrl_site1036 (dsDNA)
DNA 1: ATATTGTATTATCTTTATGTACCAAAAAAAAAAAAA
DNA 2: TTTTTTTTTTTTTGGTACATAAAGATAATACAATAT
B35: CACACA_negctrl_site1416 (dsDNA)
DNA 1: TTTTTTGTACCAAAAAAAAAAAAAAGAAAAAAAAAC
DNA 2: GTTTTTTTTTCTTTTTTTTTTTTTTGGTACAAAAAA
B36: CACACA_negctrl_site169 (dsDNA)
DNA 1: TTATTTCTTCAGAAAAAATTAAAAAATTAAACAATA
DNA 2: TATTGTTTAATTTTTTAATTTTTTCTGAAGAAATAA
B37: CACACA_negctrl_site80 (dsDNA)
DNA 1: TTTAATAAATAAATAAATAAAATATATTAAAAACCA
DNA 2: TGGTTTTTAATATATTTTATTTATTTATTTATTAAA
B38: CACACA_negctrl_site970 (dsDNA)
DNA 1: ATATTTTTATGTACTTCAAAAAAAAAGAAAAACAAA
DNA 2: TTTGTTTTTCTTTTTTTTTGAAGTACATAAAAATAT
B39: CACACA_negctrl_site1769 (dsDNA)
DNA 1: TTTTTACGTAAACAAAATAATTATATAATATTATTT
DNA 2: AAATAATATTATATAATTATTTTGTTTACGTAAAAA
B40: CACACA_negctrl_site500 (dsDNA)
DNA 1: TAATTAAAAAATAAAAAAAAAAAAAATTAAAACAAA
DNA 2: TTTGTTTTAATTTTTTTTTTTTTTATTTTTTAATTA
B41: CACACA_negctrl_site152 (dsDNA)
DNA 1: TTTTAAATAATTCGTAATTATAATTATGGAAAAAAG
DNA 2: CTTTTTTCCATAATTATAATTACGAATTATTTAAAA
B42: CACACA_negctrl_site624 (dsDNA)
DNA 1: TTATAATAAATATTCATATGTTCAAATATATATATA
DNA 2: TATATATATATTTGAACATATGAATATTTATTATAA
B43: CACACA_negctrl_site918 (dsDNA)
DNA 1: TTTTTTTTTTCTTTTTTTCTCATGAAATTCTAAATG
DNA 2: CATTTAGAATTTCATGAGAAAAAAAGAAAAAAAAAA
B44: CACACA_negctrl_site1344 (dsDNA)
DNA 1: TTATGTATTCATTTTTTTTAAGCACCCCAAAATGAT
DNA 2: ATCATTTTGGGGTGCTTAAAAAAAATGAATACATAA

target: T1, AP2-LT D1 (Plasmodium falciparum, UniProt Q8IAM1 2520-2577); experiment: gcPBM; about 25 ug protein; PBS, 1% milk, 0.2 mg/ml BSA, salmon testes DNA, 0.03% Triton X-100; conditions: tags: N-terminal GST (pGEX-4T-1), kept; label: surface-attached array probe
T1 sequence: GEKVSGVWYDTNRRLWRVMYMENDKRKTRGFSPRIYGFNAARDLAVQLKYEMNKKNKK

Binder	binding signal
B1	8.66 ln median PBM intensity, better of two orientations
B2	8.59 ln median PBM intensity, better of two orientations
B3	8.5 ln median PBM intensity, better of two orientations
B4	8.69 ln median PBM intensity, better of two orientations
B5	8.69 ln median PBM intensity, better of two orientations
B6	8.62 ln median PBM intensity, better of two orientations
B7	8.72 ln median PBM intensity, better of two orientations
B8	8.72 ln median PBM intensity, better of two orientations
B9	8.61 ln median PBM intensity, better of two orientations
B10	8.68 ln median PBM intensity, better of two orientations
B11	8.69 ln median PBM intensity, better of two orientations
B12	8.67 ln median PBM intensity, better of two orientations
B13	8.6 ln median PBM intensity, better of two orientations
B14	8.67 ln median PBM intensity, better of two orientations
B15	8.55 ln median PBM intensity, better of two orientations
B16	8.65 ln median PBM intensity, better of two orientations
B17	8.58 ln median PBM intensity, better of two orientations
B18	8.55 ln median PBM intensity, better of two orientations
B19	8.74 ln median PBM intensity, better of two orientations
B20	8.57 ln median PBM intensity, better of two orientations
B21	8.61 ln median PBM intensity, better of two orientations
B22	8.52 ln median PBM intensity, better of two orientations

Binder	binding signal
B23	8.56 ln median PBM intensity, better of two orientations
B24	8.73 ln median PBM intensity, better of two orientations
B25	8.6 ln median PBM intensity, better of two orientations
B26	8.7 ln median PBM intensity, better of two orientations
B27	8.57 ln median PBM intensity, better of two orientations
B28	8.71 ln median PBM intensity, better of two orientations
B29	8.73 ln median PBM intensity, better of two orientations
B30	8.66 ln median PBM intensity, better of two orientations
B31	8.5 ln median PBM intensity, better of two orientations
B32	8.64 ln median PBM intensity, better of two orientations
B33	8.74 ln median PBM intensity, better of two orientations
B34	8.63 ln median PBM intensity, better of two orientations
B35	8.68 ln median PBM intensity, better of two orientations
B36	8.53 ln median PBM intensity, better of two orientations
B37	8.65 ln median PBM intensity, better of two orientations
B38	8.64 ln median PBM intensity, better of two orientations
B39	8.71 ln median PBM intensity, better of two orientations
B40	8.72 ln median PBM intensity, better of two orientations
B41	8.59 ln median PBM intensity, better of two orientations
B42	8.56 ln median PBM intensity, better of two orientations
B43	8.68 ln median PBM intensity, better of two orientations
B44	8.67 ln median PBM intensity, better of two orientations

— publication PMC11417369, “DNA sequence and chromatin differentiate sequence-specific transcription factor binding in the human malaria parasite Plasmodium falciparum”
